{
  "source": "patent US20250215444",
  "proteins": {"B1": {"name": "Recombinant RSK1 (ARSK1) kinase, His-MBP fusion produced in E. coli BL21 (protein)", "chain": "MAVFKKKKTSLTSLFLGCYKAKNVSKYEGGEKAVMKIRTCPAFKRLSLSDISDPSSPMSVMDDLSHSFTSQKLRLFTLSELRVITHNFSRSNMLGEGGFGPVYKGFIDDKVKPGIEAQPVAVKALDLHGHQGHREWLAEILFLGQLSNKHLVKLIGFCCEEEQRVLVYEYMPRGSLENQLFRRNSLAMAWGIRMKIALGAAKGLAFLHEAEKPVIYRDFKTSNILLDSDYNAKLSDFGLAKDGPEGEHTHVTTRVMGTQGYAAPEYIMTGHLTTMNDVYSFGVVLLELITGKRSMDNTRTRREQSLVEWARPMLRDQRKLERIIDPRLANQHKTEAAQVAASLAYKCLSQHPKYRPTMCEVVKVLESIQEVDIRKHDGNNNKEGKKFVDINKFRHHRKGKRRVNIAYSDSLVYKESKAKQNDGI"}},
  "key": {"[1]": {"target": "T1, LST8-1 fused C-terminally to the GSrhino tag, TAP-purified from PSB-D cell cultures, Q9LV27", "T1 chain": "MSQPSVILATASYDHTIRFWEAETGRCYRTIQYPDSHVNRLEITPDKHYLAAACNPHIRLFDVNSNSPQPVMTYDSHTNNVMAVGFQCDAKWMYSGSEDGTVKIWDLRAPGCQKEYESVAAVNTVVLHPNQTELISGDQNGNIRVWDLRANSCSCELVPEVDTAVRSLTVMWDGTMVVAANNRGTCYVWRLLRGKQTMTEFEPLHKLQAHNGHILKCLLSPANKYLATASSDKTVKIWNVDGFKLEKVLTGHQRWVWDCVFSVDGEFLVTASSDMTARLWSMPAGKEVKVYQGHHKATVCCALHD"}, "[2]": {"target": "T2, Raptor1B fused N- or C-terminally to the GSrhino TAP tag, TAP-purified from PSB-D cell cultures", "T2 chain": "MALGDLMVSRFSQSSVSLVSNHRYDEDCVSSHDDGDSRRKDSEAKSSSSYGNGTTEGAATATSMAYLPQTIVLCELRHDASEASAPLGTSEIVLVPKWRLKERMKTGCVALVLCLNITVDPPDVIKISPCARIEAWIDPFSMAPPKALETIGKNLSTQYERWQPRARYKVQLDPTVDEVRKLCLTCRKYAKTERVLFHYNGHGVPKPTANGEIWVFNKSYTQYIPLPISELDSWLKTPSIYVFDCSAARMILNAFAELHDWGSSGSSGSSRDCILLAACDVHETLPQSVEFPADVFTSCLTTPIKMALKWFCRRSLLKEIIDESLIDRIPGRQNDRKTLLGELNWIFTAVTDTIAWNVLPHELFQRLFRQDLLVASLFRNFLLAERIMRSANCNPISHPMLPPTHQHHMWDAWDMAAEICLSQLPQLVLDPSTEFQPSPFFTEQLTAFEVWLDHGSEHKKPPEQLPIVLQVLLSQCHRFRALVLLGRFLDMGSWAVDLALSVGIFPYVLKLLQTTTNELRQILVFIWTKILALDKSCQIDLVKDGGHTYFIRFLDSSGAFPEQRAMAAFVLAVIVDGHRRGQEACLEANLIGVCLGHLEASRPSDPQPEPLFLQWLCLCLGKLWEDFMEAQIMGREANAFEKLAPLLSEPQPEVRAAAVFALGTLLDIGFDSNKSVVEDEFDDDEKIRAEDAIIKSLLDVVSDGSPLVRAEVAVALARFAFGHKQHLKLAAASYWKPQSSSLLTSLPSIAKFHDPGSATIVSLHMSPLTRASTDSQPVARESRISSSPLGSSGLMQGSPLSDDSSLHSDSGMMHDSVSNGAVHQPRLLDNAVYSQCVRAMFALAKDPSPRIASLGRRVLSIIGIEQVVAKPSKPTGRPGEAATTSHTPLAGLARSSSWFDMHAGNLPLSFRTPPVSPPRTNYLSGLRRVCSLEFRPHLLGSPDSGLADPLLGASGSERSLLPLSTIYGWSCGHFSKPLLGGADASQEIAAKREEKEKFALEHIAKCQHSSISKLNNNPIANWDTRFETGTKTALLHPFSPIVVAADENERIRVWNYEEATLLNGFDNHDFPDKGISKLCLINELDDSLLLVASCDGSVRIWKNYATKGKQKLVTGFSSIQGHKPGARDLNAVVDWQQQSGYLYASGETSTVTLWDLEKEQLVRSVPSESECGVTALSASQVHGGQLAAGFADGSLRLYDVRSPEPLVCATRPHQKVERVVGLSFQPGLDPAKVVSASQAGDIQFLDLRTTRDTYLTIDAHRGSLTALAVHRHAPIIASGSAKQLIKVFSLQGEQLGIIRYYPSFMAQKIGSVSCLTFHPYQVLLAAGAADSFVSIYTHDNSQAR"}},
  "data": [
    {"protein": "B1", "values": [
      {"measurement": "in vitro kinase assay", "setting": "[1]", "value": "ARSK1 could not phosphorylate these two proteins"},
      {"measurement": "in vitro kinase assay with ATP-P32, SDS-PAGE and autoradiography", "setting": "[2]", "value": "In the presence of ARSK1, the RAPTOR1B phosphosignal (lanes 2 and 3, rectangle) is higher compared to the control (lane 4; no ARSK1)"}
    ]}
  ]
}
